B1: Protein PTHB1 (Homo sapiens), Q3SYG4 (parent)
chain: MSLFKARDWWSTILGDKEEFDQGCLCLANVDNSGNGQDKIIVGSFMGYLRIFSPHPAKTGDGAQAEDLLLEVDLRDPVLQVEVGKFVSGTEMLHLAVLHSRKLCVYSVSGTLGNVEHGNQCQMKLMYEHNLQRTACNMTYGSFGGVKGRDLICIQSMDGMLMVFEQESYAFGRFLPGFLLPGPLAYSSRTDSFLTVSSCQQVESYKYQVLAFATDADKRQETEQQKLGSGKRLVVDWTLNIGEQALDICIVSFNQSASSVFVLGERNFFCLKDNGQIRFMKKLDWSPSCFLPYCSVSEGTINTLIGNHNNMLHIYQDVTLKWATQLPHIPVAVRVGCLHDLKGVIVTLSDDGHLQCSYLGTDPSLFQAPNVQSRELNYDELDVEMKELQKIIKDVNKSQGVWPMTEREDDLNVSVVVSPNFDSVSQATDVEVGTDLVPSVTVKVTLQNRVILQKAKLSVYVQPPLELTCDQFTFEFMTPDLTRTVSFSVYLKRSYTPSELEGNAVVSYSRPTDRNPDGIPRVIQCKFRLPLKLICLPGQPSKTASHKITIDTNKSPVSLLSLFPGFASQSDDDQVNVMGFHFLGGARITVLASKTSQRYRIQSEQFEDLWLITNELILRLQEYFEKQGVKDFACSFSGSIPLQEYFELIDHHFELRINGEKLEELLSERAVQFRAIQRRLLARFKDKTPAPLQHLDTLLDGTYKQVIALADAVEENQGNLFQSFTRLKSATHLVILLIALWQKLSADQVAILEAAFLPLQEDTQELGWEETVDAAISHLLKTCLSKSSKEQALNLNSQLNIPKDTSQLKKHITLLCDRLSKGGRLCLSTDAAAPQTMVMPGGCTTIPESDLEERSVEQDSTELFTNHRHLTAETPRPEVSPLQGVSE
partner: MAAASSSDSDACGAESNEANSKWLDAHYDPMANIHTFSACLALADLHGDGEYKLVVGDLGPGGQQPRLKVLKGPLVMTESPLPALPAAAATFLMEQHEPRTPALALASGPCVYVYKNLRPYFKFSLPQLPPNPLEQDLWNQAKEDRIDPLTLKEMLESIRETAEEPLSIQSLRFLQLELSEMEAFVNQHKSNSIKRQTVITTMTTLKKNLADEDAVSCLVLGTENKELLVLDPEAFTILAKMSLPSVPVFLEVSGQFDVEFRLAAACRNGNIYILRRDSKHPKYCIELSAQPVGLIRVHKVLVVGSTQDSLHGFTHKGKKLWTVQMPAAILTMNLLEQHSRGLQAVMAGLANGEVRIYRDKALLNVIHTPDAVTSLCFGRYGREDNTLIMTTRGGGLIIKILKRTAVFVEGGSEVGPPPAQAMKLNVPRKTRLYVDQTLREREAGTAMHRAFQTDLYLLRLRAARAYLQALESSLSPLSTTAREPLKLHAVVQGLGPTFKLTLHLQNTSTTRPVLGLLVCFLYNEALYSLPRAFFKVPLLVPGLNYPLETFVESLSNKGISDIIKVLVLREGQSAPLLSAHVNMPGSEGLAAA

Variants of: B1
Conditions: with bbs1_human BBS1, Q8NFJ9

Variant | effect of a mutation on the interaction
S498A | with no effect
S498E | with no effect
S498K | with no effect
P511K | with no effect
P511E | with no effect
P511A | with no effect
K492A | with no effect
K492E | with no effect
D470K | with no effect
D470E | with no effect
D470A | with no effect
T478E | with no effect
T478K | with no effect
T478A | with no effect
D480K | with no effect
D480E | with no effect
D480A | with no effect
P463E | with no effect
P463K | with no effect
P463A | with no effect
D513A | with no effect
D513K | with no effect
D513E | with no effect
R493K | with no effect

Variant | effect of a mutation on the interaction
R493E | with no effect
R493A | with no effect
L500A | with no effect
L500E | with no effect
L500K | with no effect
T484A | with no effect
T484K | with no effect
T484E | with no effect
F487A | with no effect
F487E | with no effect
F487K | with no effect
E475K | with no effect
E475A | with no effect
T512E | with no effect
T512A | with no effect
T512K | with no effect
Q524E | with no effect
Q524A | with no effect
L465A | with no effect
L465K | with no effect
L465E | with no effect
Y508E | with no effect
Y508K | with no effect
Y508A | with no effect

Variant | effect of a mutation on the interaction
F476E | with no effect
F476K | with no effect
F476A | with no effect
G502K | with no effect
G502E | with no effect
G502R | disrupting interaction strength
G502A | with no effect
Y490A | with no effect
Y490K | with no effect
Y490E | with no effect
Q471K | with no effect
Q471A | with no effect
Q471E | with no effect
P497E | with no effect
P497A | with no effect
P497K | with no effect
F472K | with no effect
F472A | with no effect
F472E | with no effect
S486K | with no effect
S486A | with no effect
S486E | with no effect
E499A | with no effect
E499K | with no effect

Variant | effect of a mutation on the interaction
T473E | with no effect
T473A | with no effect
T473K | with no effect
V505E | with no effect
V505A | with no effect
V505K | with no effect
R521T | disrupting interaction strength
R521A | with no effect
R521K | with no effect
R521E | with no effect
V485A | with no effect
V485K | with no effect
V485E | with no effect
S494A | with no effect
S494E | with no effect
S494K | with no effect
S488K | with no effect
S488E | with no effect
S488A | with no effect
E501A | with no effect
E501K | with no effect
M477K | with no effect
M477A | with no effect
M477E | with no effect

Variant | effect of a mutation on the interaction
C469A | with no effect
C469K | with no effect
C469E | with no effect
C469Y | disrupting interaction strength
L481E | with no effect
L481K | with no effect
L481A | with no effect
N515E | with no effect
N515K | with no effect
N515A | with no effect
G518E | with no effect
G518A | with no effect
G518K | with no effect
T496K | with no effect
T496A | with no effect
T496E | with no effect
R514A | with no effect
R514K | with no effect
R514E | with no effect
Y495K | with no effect
Y495E | with no effect
Y495A | with no effect
P464E | with no effect
P464K | with no effect

Variant | effect of a mutation on the interaction
P464A | with no effect
V506K | with no effect
V506E | with no effect
V506A | with no effect
V506I | disrupting interaction strength
F474K | with no effect
F474A | with no effect
F474E | with no effect
D517A | with no effect
D517K | with no effect
D517E | with no effect
I519A | with no effect
I519K | with no effect
I519E | with no effect
P516E | with no effect
P516A | with no effect
P516K | with no effect
T482E | with no effect
T482A | with no effect
T482K | with no effect
T482P | disrupting interaction strength
L467K | with no effect
L467E | with no effect
L467A | with no effect

Variant | effect of a mutation on the interaction
R483K | with no effect
R483E | with no effect
R483A | with no effect
L491A | with no effect
L491E | with no effect
L491K | with no effect
S509K | with no effect
S509A | with no effect
S509E | with no effect
E466A | with no effect
E466K | with no effect
V489E | with no effect
V489A | with no effect
V489K | with no effect
R510E | with no effect
R510A | with no effect
R510K | with no effect
I523A | with no effect
I523E | with no effect
I523K | with no effect
V522K | with no effect
V522A | with no effect
V522E | with no effect
S507E | with no effect

Variant | effect of a mutation on the interaction
S507F | disrupting interaction strength
S507A | with no effect
S507K | with no effect
N503A | with no effect
N503E | with no effect
N503K | with no effect
P479A | with no effect
P479E | with no effect
P479K | with no effect
P520A | with no effect
P520K | with no effect
P520E | with no effect
T468A | with no effect
T468K | with no effect
T468E | with no effect
A504K | with no effect
A504E | with no effect

Source: IntAct's records for PubMed 29039417
